T1: His-tagged IgD2-D3 of human FGFR3-IIIb (human, UniProt P22607-2 143-374, limits assumed)
T1 construct: domain: IgD2-D3; also called FGFR3-IIIb-His protein; Human FGFR3 ECD IIIb; not shown: His tag
T1 sequence (looked up): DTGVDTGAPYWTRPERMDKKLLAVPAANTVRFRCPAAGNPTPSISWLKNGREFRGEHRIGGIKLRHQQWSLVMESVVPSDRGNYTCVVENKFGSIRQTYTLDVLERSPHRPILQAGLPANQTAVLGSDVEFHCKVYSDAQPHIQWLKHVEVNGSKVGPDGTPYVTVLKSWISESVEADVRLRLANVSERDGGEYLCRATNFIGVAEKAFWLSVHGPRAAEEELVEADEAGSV

T2: His-tagged IgD2-D3 of human FGFR3-IIIc (human, UniProt P22607 143-372)
T2 construct: domain: IgD2-D3; also called FGFR3-IIIC-His protein; IIIc-His protein; not shown: His tag
T2 sequence: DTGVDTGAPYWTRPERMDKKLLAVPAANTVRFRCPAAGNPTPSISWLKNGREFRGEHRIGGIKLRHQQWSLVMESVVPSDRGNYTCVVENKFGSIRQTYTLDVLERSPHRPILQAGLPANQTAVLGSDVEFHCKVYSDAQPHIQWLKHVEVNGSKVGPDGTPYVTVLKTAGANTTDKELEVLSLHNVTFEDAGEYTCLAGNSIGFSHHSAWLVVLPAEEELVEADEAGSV

T3: human FGFR3-IIIc ECD-human Fc chimeric protein (human, UniProt P22607 23-375)
T3 construct: extracellular domain; Made in CHO cells, purified on protein A; also called FGFR3-Fc chimeric protein; not shown: human Fc
T3 sequence (looked up): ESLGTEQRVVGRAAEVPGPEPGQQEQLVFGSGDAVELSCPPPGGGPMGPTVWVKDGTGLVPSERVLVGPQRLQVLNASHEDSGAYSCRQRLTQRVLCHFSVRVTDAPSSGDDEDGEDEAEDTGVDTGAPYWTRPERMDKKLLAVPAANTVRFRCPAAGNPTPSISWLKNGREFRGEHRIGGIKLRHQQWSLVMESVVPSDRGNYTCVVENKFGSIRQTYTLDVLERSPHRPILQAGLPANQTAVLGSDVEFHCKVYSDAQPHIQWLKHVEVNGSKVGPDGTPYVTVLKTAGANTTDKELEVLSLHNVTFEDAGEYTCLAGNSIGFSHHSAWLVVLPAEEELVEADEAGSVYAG


Columns and labels:
[1] = target: human FGFR3 (isoform and construct not stated) (human) (UniProt P22607); experiment: Scatchard analysis, radioiodinated antibody cell binding; OPM2 cells
[2] = target: human FGFR3 (isoform and construct not stated) (human) (UniProt P22607); experiment: Scatchard analysis, radioiodinated antibody cell binding; KMS11 cells
[3] = target: human FGFR3 (isoform and construct not stated) (human) (UniProt P22607); experiment: Scatchard analysis, radioiodinated antibody cell binding; RT112 cells
[4] = target: human FGFR3 (isoform and construct not stated) (human) (UniProt P22607); experiment: Scatchard analysis, radioiodinated antibody cell binding; UMUC-14 cells
[5] = target: human FGFR3 (isoform and construct not stated) (human) (UniProt P22607); experiment: cell-based or functional assay
[6] = target: T1, His-tagged IgD2-D3 of human FGFR3-IIIb; experiment: BIAcore SPR; antibody on CM5 chip, FGFR3-His protein injected
[7] = target: T2, His-tagged IgD2-D3 of human FGFR3-IIIc; experiment: as above
[8] = target: T2, His-tagged IgD2-D3 of human FGFR3-IIIc; experiment: BIAcore SPR; R3 Ab on the chip, FGFR3-IIIc-His protein injected, 25 C
[9] = target: T3, human FGFR3-IIIc ECD-human Fc chimeric …; experiment: competition ELISA; FGFR3-IIIc-Fc captured, antibody titrated, then FGF1 and heparin; competitor FGF1
[10] = target: T3, human FGFR3-IIIc ECD-human Fc chimeric …; experiment: competition ELISA; FGFR3-IIIc-Fc captured, antibody titrated, then FGF9 and heparin; competitor FGF9

Row | Molecule | Kd [6] [nM] | Kd [7] [nM] | increased inhibitory activity in the Ba/F3-FGFR3 viability assay (fold greater than parent clone 184.6) [5] | other results
1 | R3Mab |  |  |  | Kd [1]: 0.64 nM; Kd [2]: 0.35 nM; Kd [3]: 0.16 nM; Kd [4]: 0.34 nM
2 | anti-FGFR3 antibody clone 184.6.58 (antibody, V domains shown) VH: EVQLVESGGGLVQPGGSLRLSCAASGFTFTSTGISWVRQAPGKGLEWVGRIYPTNGSTNYADSVKGRFTISADTSKNTAYLQMNSLRAEDTAVYYCARARTYGIYDLYVDYTEYVMDYWGQGTLV VL: DIQMTQSPSSLSASVGDRVTITCRASQDVDISLAWYQQKPGKAPKLLIYSASSLASGVPSRFSGSGSGTDFTLTISSLQPEDFATYYCQQGAGNPYTFGQGTKVEIKR | 0.19 | 0.88 | 100 | 
3 | anti-FGFR3 antibody clone 184.6.1N54S (antibody, V domains shown) VH: EVQLVESGGGLVQPGGSLRLSCAASGFTFTSTGISWVRQAPGKGLEWVGRIYPTSGSTNYADSVKGRFTISADTSKNTAYLQMNSLRAEDTAVYYCARARTYGIYDLYVDYTEYVMDYWGQGTLV VL: DIQMTQSPSSLSASVGDRVTITCRASQDVDTSLAWYQQKPGKAPKLLIYSASFLYSGVPSRFSGSGSGTDFTLTISSLQPEDFATYYCQQSTGHPQTFGQGTKVEIKR |  |  |  | Kd [8]: 3.52 nM; koff [8]: 0.00032 s⁻¹; kon [8]: 91000 M⁻¹ s⁻¹; IC50 [9]: 1.7 nM; IC50 [10]: 1.3 nM
4 | anti-FGFR3 antibody clone 184.6.62 (antibody, V domains shown) VH: EVQLVESGGGLVQPGGSLRLSCAASGFTFSTTGISWVRQAPGKGLEWVGRIYPLYGSTHYADSVKGRFTISADTSKNTAYLQMNSLRAEDTAVYYCARARTYGIYDLYVDYTEYVMDYWGQGTLV VL: DIQMTQSPSSLSASVGDRVTITCRASQDVSTAVAWYQQKPGKAPKLLIYSASFLYSGVPSRFSGSGSGTDFTLTISSLQPEDFATYYCQQTYTTSLTFGQGTKVEIKR | 0.12 | 2.24 | 100 | 

Further lines, with some results ahead:

Row | Kd [6] [nM] | Kd [7] [nM] | Molecule | increased inhibitory activity in the Ba/F3-FGFR3 viability assay (fold greater than parent clone 184.6) [5] | other results
5 | 0.264 | 1.44 | anti-FGFR3 antibody clone 184.6.1 (antibody, V domains shown) VH: EVQLVESGGGLVQPGGSLRLSCAASGFTFTSTGISWVRQAPGKGLEWVGRIYPTNGSTNYADSVKGRFTISADTSKNTAYLQMNSLRAEDTAVYYCARARTYGIYDLYVDYTEYVMDYWGQGTLV VL: DIQMTQSPSSLSASVGDRVTITCRASQDVDTSLAWYQQKPGKAPKLLIYSASFLYSGVPSRFSGSGSGTDFTLTISSLQPEDFATYYCQQSTGHPQTFGQGTKVEIKR | 100 | 
6 | 38 | 110 | anti-FGFR3 antibody clone 184.6 (antibody, V domains shown, The tie to the clone name is indirect) VH: EVQLVESGGGLVQPGGSLRLSCAASGFTFTSTGISWVRQAPGKGLEWVGRIYPTNGSTNYADSVKGRFTISADTSKNTAYLQMNSLRAEDTAVYYCARARTYGIYDLYVDYTEYVMDYWGQGTLV VL: DIQMTQSPSSLSASVGDRVTITCRASQDVSTAVAWYQQKPGKAPKLLIYSASFLYSGVPSRFSGSGSGTDFTLTISSLQPEDFATYYCQQSYTTPPTFGQGTKVEIKR |  | 

Reference: patent US20100291114A1 (published 2010)
